B1: His6-HI-2 (human phosphatase inhibitor-2, wild type, full length) (natural protein, UniProt P41236 1-205, looked up)
chain: MAASTASHRPIKGILKNKTSTTSSMVASAEQPRGNVDEELSKKSQKWDEMNILATYHPADKDYGLMKIDEPSTPYHSMMGDDEDACSDTEATEAMAPDILARKLAAAEGLEPKYRIQEQESSGEEDSDLSPEEREKKRQFEMKRKLHYNEGLNIKLARQLISKDLHDDDEDEEMLETADGESMNTEESNQGSTPSDQQQNKLRSS
B3: HI-2(I68A) (natural protein, human, UniProt P41236 1-205, looked up)
chain: MAASTASHRPIKGILKNKTSTTSSMVASAEQPRGNVDEELSKKSQKWDEMNILATYHPADKDYGLMKADEPSTPYHSMMGDDEDACSDTEATEAMAPDILARKLAAAEGLEPKYRIQEQESSGEEDSDLSPEEREKKRQFEMKRKLHYNEGLNIKLARQLISKDLHDDDEDEEMLETADGESMNTEESNQGSTPSDQQQNKLRSS

Assay [1] has as its target Pin1 free of GST (thrombin-cleaved GST-Pin1) (human, UniProt Q13526 1-163). Description: SEC. On the technique in general: In gel filtration, larger molecules generally elute earlier.
In assay [2] the target is B1. Kind of assay: pull-down.
In the assay “HI-2(I68A)” the target is B3. Description: pull-down.
A further assay deals with T1, HI-2(1-152) (human, UniProt P41236 1-152).
T1 sequence (looked up): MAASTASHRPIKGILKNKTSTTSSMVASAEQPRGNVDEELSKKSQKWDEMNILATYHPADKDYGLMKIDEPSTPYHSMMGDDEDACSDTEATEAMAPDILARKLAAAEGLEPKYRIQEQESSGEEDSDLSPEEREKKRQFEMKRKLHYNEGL
Description: pull-down.

With B1, the stoichiometry N (in general, the number of molecules, sites or subunits per partner or assembly) in assay [1] was 1 I-2 per Pin1 (2:2).

As for MADEEKLPPGWEKRMSRSSGRVYYFNHITNASQWERPSGNSSSG (domain or fragment, human, UniProt Q13526 1-44, looked up, phosphoserine at 16 (PKA)) [PKA phosphorylated GST-Pin1ww], the binding result in assay [2] is on record as “binds”.

B2: GST-Pin1iso (human Pin1 isomerase domain, residues 46-163, fused to GST) (domain or fragment, UniProt Q13526 46-163, looked up)
chain: KNGQGEPARVRCSHLLVKHSQSRRPSSWRQEKITRTKEEALELINGYIQKIKSGEEDFESLASQFSDCSSAKARGDLGAFSRGQMQKPFEDASFALRTGEMSGPVFTDSGIHIILRTE
Take B2: the binding result with HI-2(I68A) is on record as “binds”.

As for B3, in assay [1], the “stoichiometry N” value is 1 I-2 per Pin1 (1:1).

With MADEEKLPPGWEKRMSRSSGRVYYFNHITNASQWERPSGNSSSG (domain or fragment, UniProt Q13526 1-44, looked up) [GST-Pin1ww (human Pin1 WW domain, residues 1-44, fused to GST)], the binding result (in the assay with HI-2(1-152); in assay [2]) was “binds” in each case.

The values are drawn from PMC3965691 (Biochemistry, 2011).
